Reference: patent publication US20250163127A1 (published 2025)

The binders below were run against PD-1 (human, UniProt Q15116) (assay: cell-based or functional assay).

Row | Binder | % CD25 Hi FoxP3 + [% at 100 nM]
1 | PD-L1 303-Fc (SEQ ID NO 3531) (Fc fusion) FTVTVPKDLYVVEYGSNMTIECKFPVEKQLDLAALIVYWEMEGKDIIQFVHGEEDQKAQHSSYRQRARLLKDQLSLGNAALQITDVKLQDAGVYRCMISYGGGADYKRITVKVNAGGGGSGGGGSEPKSSDKTHTCPPCPAPEAEGAPSVFLFPPKPKDTLMISRTPEVTCVVVDVSHEDPEVKFNWYVDGVEVHNAKTKPREEQYNSTYRVVSVLTVLHQDWLNGKEYKCKVSNKALPAPIEKTISKAKGQPREPQVYTLPPCREEMTKNQVSLWCLVKGFYPSDIAVEWESNGQPENNYKTTPPVLDSDGSFFLYSKLTVDKSRWQQGNVFSCSVMHEALHNHYTQKSLSLSPG | 24.8
2 | PD-L1 303-Fc + Fc (Fc fusion) chain 1: HMSSVSAQAAAEPKSSDKTHTCPPCPAPEAEGAPSVFLFPPKPKDTLMISRTPEVTCVVVDVSHEDPEVKFNWYVDGVEVHNAKTKPREEQYNSTYRVVSVLTVLHQDWLNGKEYKCKVSNKALPAPIEKTISKAKGQPREPQVYTLPPCREEMTKNQVSLWCLVKGFYPSDIAVEWESNGQPENNYKTTPPVLDSDGSFFLYSKLTVDKSRWQQGNVFSCSVMHEALHNHYTQKSLSLSPGK chain 2: FTVTVPKDLYVVEYGSNMTIECKFPVEKQLDLAALIVYWEMEGKDIIQFVHGEEDQKAQHSSYRQRARLLKDQLSLGNAALQITDVKLQDAGVYRCMISYGGGADYKRITVKVNAGSGGSGGGGSGGGGSEPKSSDKTHTCPPCPAPEAEGAPSVFLFPPKPKDTLMISRTPEVTCVVVDVSHEDPEVKFNWYVDGVEVHNAKTKPREEQYNSTYRVVSVLTVLHQDWLNGKEYKCKVSNKALPAPIEKTISKAKGQPREPQVCTLPPSREEMTKNQVSLSCAVKGFYPSDIAVEWESNGQPENNYKTTPPVLDSDGSFFLVSKLTVDKSRWQQGNVFSCSVMHEALHNHYTQKSLSLSPGHHHHHH | 25.9

More lines, now with the values ahead:

Row | % CD25 Hi FoxP3 + [% at 100 nM] | Binder
3 | 23.5 | PD-L1 303-COMP (other) FTVTVPKDLYVVEYGSNMTIECKFPVEKQLDLAALIVYWEMEGKDIIQFVHGEEDQKAQHSSYRQRARLLKDQLSLGNAALQITDVKLQDAGVYRCMISYGGGADYKRITVKVNAGGGGSGGGGSGGGGSDLGPQMLRELQETNAALQDVRELLRQQVREITFLKNTVMECDACGDYKDDDDKHHHHHH
4 | 26.8 | PD-L2 1417-Fc + Fc (Fc fusion) chain 1: HMSSVSAQAAAEPKSSDKTHTCPPCPAPEAEGAPSVFLFPPKPKDTLMISRTPEVTCVVVDVSHEDPEVKFNWYVDGVEVHNAKTKPREEQYNSTYRVVSVLTVLHQDWLNGKEYKCKVSNKALPAPIEKTISKAKGQPREPQVYTLPPCREEMTKNQVSLWCLVKGFYPSDIAVEWESNGQPENNYKTTPPVLDSDGSFFLYSKLTVDKSRWQQGNVFSCSVMHEALHNHYTQKSLSLSPGK chain 2: LFTVTVPKELYIIEQGSNVTLECNFDTGSHVNLGAITASLQKVENDASPHRERATLLEEQLPLGRALFHIPQVQVRDEGQYRCIIIYGDAWDYKYLTLKVKAGSGGSGGGGSGGGGSEPKSSDKTHTCPPCPAPEAEGAPSVFLFPPKPKDTLMISRTPEVTCVVVDVSHEDPEVKFNWYVDGVEVHNAKTKPREEQYNSTYRVVSVLTVLHQDWLNGKEYKCKVSNKALPAPIEKTISKAKGQPREPQVCTLPPSREEMTKNQVSLSCAVKGFYPSDIAVEWESNGQPENNYKTTPPVLDSDGSFFLVSKLTVDKSRWQQGNVFSCSVMHEALHNHYTQKSLSLSPGHHHHHH
